Article PMC4386032, “A Dynamin-Actin Interaction Is Required for Vesicle Scission during Endocytosis in Yeast” (Current Biology, 2015)
Numbering of substitutions follows the chain as printed. In names and notes the source's numbering stands.

B1: Vps1 (yeast dynamin), wild type, recombinant His tag fusion (natural protein, yeast (budding yeast), UniProt P21576 1-704, looked up)
chain: MDEHLISTINKLQDALAPLGGGSQSPIDLPQITVVGSQSSGKSSVLENIVGRDFLPRGTGIVTRRPLVLQLINRRPKKSEHAKVNQTANELIDLNINDDDKKKDESGKHQNEGQSEDNKEEWGEFLHLPGKKFYNFDEIRKEIVKETDKVTGANSGISSVPINLRIYSPHVLTLTLVDLPGLTKVPVGDQPPDIERQIKDMLLKYISKPNAIILSVNAANTDLANSDGLKLAREVDPEGTRTIGVLTKVDLMDQGTDVIDILAGRVIPLRYGYIPVINRGQKDIEHKKTIREALENERKFFENHPSYSSKAHYCGTPYLAKKLNSILLHHIRQTLPEIKAKIEATLKKYQNELINLGPETMDSASSVVLSMITDFSNEYAGILDGEAKELSSQELSGGARISYVFHETFKNGVDSLDPFDQIKDSDIRTIMYNSSGSAPSLFVGTEAFEVLVKQQIRRFEEPSLRLVTLVFDELVRMLKQIISQPKYSRYPALREAISNQFIQFLKDATIPTNEFVVDIIKAEQTYINTAHPDLLKGSQAMVMVEEKLHPRQVAVDPKTGKPLPTQPSSSKAPVMEEKSGFFGGFFSTKNKKKLAALESPPPVLKATGQMTERETMETEVIKLLISSYFSIVKRTIADIIPKALMLKLIVKSKTDIQKVLLEKLYGKQDIEELTKENDITIQRRKECKKMVEILRNASQIVSSV
notes: Vps1, dynamin-like protein of budding yeast; wild-type VPS1 expressed as a His tag fusion; Template plasmids pKA677 and pKA850 are named; Forms oligomeric rings by EM; also called wild-type Vps1; yeast dynamin Vps1; source: E. coli (C43), purified
B2: Vps1 RR457,458EE, recombinant His tag fusion (natural protein, yeast (budding yeast), UniProt P21576 1-704, looked up)
chain: B1 chain with R457E, R458E
notes: Vps1 of budding yeast with the charge-switch mutations R457E and R458E in a helix of the stalk domain; Made by site-directed mutagenesis of template plasmids pKA677 and pKA850; also called RR-EE; Vps1 RR-EE; source: E. coli (C43), purified

How the values were obtained:
[1] = target: the molecule itself; assay: negative-stain electron microscopy; purified Vps1 imaged directly, adsorbed on carbon-coated grids, negative staining with uranyl formate; oligomeric rings
[2] = target: rabbit muscle actin (F-actin) (rabbit, UniProt P68135 1-377); assay: co-sedimentation; high-speed F-actin pelleting: purified Vps1 (supernatant of a 90,000 x g pre-spin) mixed with pre-polymerized yeast or rabbit muscle F-actin (10% KME pH 8), 15 min, spun 90,000 x g; supernatant and pellet by SDS-PAGE, densitometry; KD from a single site binding curve over a range of Vps1 concentrations; 1.5 uM Vps1 with 3 uM F-actin in Figure 1A; settings: both partners purified

Row | Binder | binding result [1] | Kd [2] [nM]
1 | B1 | binds | 920 ± 310
2 | B2 | binds | –
